The record followed here is the nanobody polyreactivity screen of Harvey et al. (2022).

The data set is described as follows: yeast display, Sf9 membrane polyspecificity reagent, FACS + sequencing; frameworks hold sequencing errors. Put shortly: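 Polyreactivity labels are assigned by the sorting gate from which each nanobody was recovered. The gates were low and high (top ~1%), set on anti-HA fluorescence for expression and streptavidin fluorescence for reagent binding. Before sorting, galactose-induced (36–48 hours) yeast display cells were stained for 1 hour at 4 °C with 10% biotinylated, detergent-solubilized Sf9 membrane reagent.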
As for “QVQLVESGGGLLQAGGSLPLSCPASGRIFYSYAMGWYRQAPGKERELVAGINWRGSNTYYADSVKGRFTISRDNAKNTVYFQMNSLKPEDTAVYYCSATYYQERRRGYWGQGSQVTVSS”, the “polyreactivity (PSR sort gate)” value is “high polyreactivity”.

As for “QDQLVESGGGLVQAGGSLRLSCAASGRTFDLYAMGCYRQAPGKERELVAAITKGGGSTYYADSVKGRFTISRDNAKNTVYLQMNSLKPEDTAVYYCAARKYKRIYRISSGIGYYWGQGTQVTVSS”, the “polyreactivity (PSR sort gate)” value is on record as “high polyreactivity”.

For the sequence “QVQLVESGGGLVQAGGSLRLSCAASGRIFKFNTMGWYRQAPGKERELVAVITLSGGRTFYADSVKGRFTISRDNAKNTVYLQMNSLKPEDTAVYYCAKDFEGYEGGLSRDDYWGQGTQVTVSS”, the “polyreactivity (PSR sort gate)” value is on record as “low polyreactivity”.

In the case of “QVQLVESGGGLVQAGGSLRLSCAASGFTFDANAMGWYRQAPGKERELVAAINWSGGSTYYADSVKGRFTISRDNAKYTVYLQMNSLKPEDTAVYYCAAELWGLFDYWGQGTQVTVSS”, the “polyreactivity (PSR sort gate)” value is “low polyreactivity”.

In the case of “QVQLVESGGGLVQAGGSLRLSCAASGFTLLGYAMGWYRQAPGKERELVAAISYSGVSTDYADSVKGRFTISRDNAKNTVYLQMNSLKPEDTAVSYCIAVSTDSFLQDYNYWGQGTQVTVSS”, the “polyreactivity (PSR sort gate)” value is given as “low polyreactivity”.

For the sequence “QVQLVEYGGGLVQAGGSLRLSCAASGRIFGYYTMGWYRQAPRKERELVAAITSSGGRTYYADSVKGRFTISRDNAKNTVYLQMNSLKPEDTAVYYCNKVTFGYAYWRYDGYDYWGQGTQVTVSS”, the “polyreactivity (PSR sort gate)” value is listed as “low polyreactivity”.

Turning to “QVQLVESGGGLVQAGGSLRLSCAASGSTFDYNSMGWYRQAPGKERELVATINDSGGNTYYADSVKGRFTISRDNAKNTVYLQMNSLKPEDTAVYYCATVGYLYTPVVVTWWDWGDYWGQGTQVTVSS”, the “polyreactivity (PSR sort gate)” value was “low polyreactivity”.

With “QVQLVESGGGLDQAGGSLRLSCAASGIIFGTNAMGWYIQAPGKESELVAAITWSGGNTTYADSVKGRFTISRDNAKNTVYLQMNSLKPEDTAVYYCAADFTRAGDYDYWGQGTQVTVSS”, the “polyreactivity (PSR sort gate)” value was “low polyreactivity”.

Regarding “QVQLVESGGGLVQAGGSLRLSCAASGSIFRGNAMGWYRQAPGKERELVAAISSRGGSTYYADSVKGRFTISRDNAKNTVYLQMNSLKPEDTAVYYCGAVRYKYWGVQRSYSWGQGTKVTVSS”, the “polyreactivity (PSR sort gate)” value is “high polyreactivity”.

For the sequence “QVQHVDSGGGLVQAGGSLRLSCAASGFIFSYYAMGWYRQAPVKERELVAGISYNGDRTYYADSVKGRFTISRDNAKNTFYLQMKSLKPEDTAVYYCNVVWVLGGWYDLEYDYWGQGTQVTVSS”, the “polyreactivity (PSR sort gate)” value was “high polyreactivity”.

As for “QVQLVESGGGLVQAGGSLRLSCAASGSIFRPYTMGWYRPAPGKERELVAGITSGGGTYYADSVKGRFTISRDNAKNTVYLQMNSLKPEDTAVYYCAADNWKTRSLVDYWGQGTEVTVSS”, the “polyreactivity (PSR sort gate)” value is given as “high polyreactivity”.

Take “QVQFEESGGGLVQAGGSLRLSCAASGSTFQGYAMGWYRQAPGKERELVAAISRSGGRTYYADSVKGRFTISRDNAKNTVYLQMNSLKPEDTAVYYCAAEGHELTEGDSWGQGTQVTVSS”: the “polyreactivity (PSR sort gate)” value is given as “low polyreactivity”.

With “QVQLVESGGGLVKAGGSLRLTCAASGRTFGDNAMVWYRQATGKEMELVAAIRWGGGSTYYADSVKGRFTISRDNAKNTVFLQMNRLKPEDTAVYYCAKDDWDIALVHGEYDYWGQGTQVTVSS”, the “polyreactivity (PSR sort gate)” value is listed as “low polyreactivity”.

Consider “QVQLVESGGGLVQAGGSLRLSCAASGRTSYVYAMGWYRQAPGKERELVASITGSAGSTYYADSVKGRFTISRDNAKNTVYLQMNSLKPEDTAVYYCAVLRWRSWSSPGYYWGQGTQVTVSS”, for which the “polyreactivity (PSR sort gate)” value is recorded as “high polyreactivity”.

For the sequence “QVQLVESGGGLVQAGGSLRLSCAASGFIFAAYAMGWYRQAPGKERELVAAITWDGGSTYYADSVKGSFTISRDNAKNTVYLQMNSLKPEDTAVYYCAARRRHGYDYWGQGTQVTVSS”, the “polyreactivity (PSR sort gate)” value is “high polyreactivity”.

“QVQLLESGGGLVQAGGSLRLRCAASGTIFRISYMGSYRHAPGKEREFVAAITYCANTYYADSGKGRFTISRDNAKKTVYLHMNSLKPEDTAVYYCAVPPVKETFLDYWGQGTQVTVSS”: the “polyreactivity (PSR sort gate)” value is listed as “low polyreactivity”.

Regarding “QVQLVESGGGLVQAGGSLRLSCAASGRTFVKNNMGWYRQSPGKERELVAAISSSGGSTYYADSVKGRFTISRDNAKNSVYLHMNSLNPEDTAVYFCAVSYPYKHAGGWYAYNYWGQGTQVTVSS”, the “polyreactivity (PSR sort gate)” value is on record as “high polyreactivity”.

Take “QVQLVESGGGLVQAGGSLRLSCAASGRTFSYYAMGCYRQAPGKERELVASISSGGSTKYADSVKGRFTISRDNAKNTVYLQMNSLKPEDTAVYYCAVTYWYGRVLYGYWGQGTQVTVSS”: the “polyreactivity (PSR sort gate)” value is listed as “high polyreactivity”.

With “QVQLVESGGGLVQAGGSLRLSCAASGNILTTYAMGWYRQAPGKERELVAAIRWSDGSTYYADSVKGRFTISRDNAKNTVYLQMYSLKPEDNAVYYCAADYHYPTWQGGYHYGYWGQGTQVTVSS”, the “polyreactivity (PSR sort gate)” value was “high polyreactivity”.

Consider “QVQLVESGGGLVQAGGSLRLSCAASGGIFPKNAMGWYRQAPGKERELVAAINWSGGTTNYADSVKGRFTISRDNAKNTVYLQMNSLKPEDTAVYYCAKQGLWIFVVVEMDYWGQGTQVNVSS”, for which the “polyreactivity (PSR sort gate)” value was “low polyreactivity”.

Take “QVQLVESGGGLVQAGGSLRLSCAASGYIFLRNAKGWSRQAPGKERELVAAIRRTGGSTYYADSVKGRFTISRDIAKNTVYLDMNSLKPEDTAVYYCAKRSYTGYEYLGQGTQVTVSS”: the “polyreactivity (PSR sort gate)” value is given as “low polyreactivity”.

On to “QVQLVESGGGLVQAGGSLRLSCAASGSTFYYYTMGWYRQAPGKERELVAAISSSGGSTYYADSVKGRFTISRDNAKNTVYLQMNSLKPEDTAVYYCNAARKGYRVYTLIDRHKYDYWGQGTQVTVSS”, for which the “polyreactivity (PSR sort gate)” value is on record as “high polyreactivity”.

On to “QVQLVDSGGVLVQAGGSLRLSCAASGFTFRDYAMGWYRQAPGKERELVAAISRSGDSTYYADSVKGRFTISRDNAKNTVYLQMNSLKPEDTAVYYYAAKRRYTTYDYWGQGTQVTVSS”, for which the “polyreactivity (PSR sort gate)” value is “high polyreactivity”.

With “QVQLVESGGGLVQAGGSLRLSCAASGSTFQYYAMGWYRQAPGKDRELVAAIRTGGSTNYAHSVKGRFTISRDNAKNTVYLQMNSLKPDDNAVYYCAKRSLRSYRMNYWGQGTQVTVSS”, the “polyreactivity (PSR sort gate)” value was “high polyreactivity”.

Consider “QVHLVESGGGLVQAGGSLRLSCAASGRIFQRNVMGWYRQAPGKERELVASITGGGTTNYADSVKGRFTISRDNAKNTVYLQMNSLKPEDTAVYYCAKGYGASNDPGYVRKRYGYWGQGTQVTVSS”, for which the “polyreactivity (PSR sort gate)” value was “low polyreactivity”.

With “QVQLVESGGGLVQAGGSLRLSCAASGRIFKRYVMGWYRQAPGKERELVAAISQRGGSTNYADSVKGRFTISRDNAKNTVYLQMNSLKPEDTAVYYCAAGFFSRYDYWGQGTQVTVSS”, the “polyreactivity (PSR sort gate)” value is listed as “high polyreactivity”.

In the case of “QVQLVESGGCLVQAGGSLRLICAASGSTFLLNAMGWYRQAPGKVRELVAAITSSGRTNYADSVKGRFTISRDNAKNTVYLQMNSLKPEDTAVYYCNTRYSPGYQGTDVDYWRQGTQVTVSS”, the “polyreactivity (PSR sort gate)” value is on record as “low polyreactivity”.

On to “QVQLVESGGGLVQAGGSLRLSCAASGIIFKYYARGWYRQAPGKERELVAGITSGGSTYYADSVKGRFTISRDNAKNTVYLQMNSLKPEDTAVYYCATRVRDGSQPQYRRRHSYDYWGQGTQVTVSS”, for which the “polyreactivity (PSR sort gate)” value was “high polyreactivity”.

“QVQLVESGGGLVQAGGSLRLSCAASGRTLRYYAMGWYRQAPGKERELVATISRAGRTNYADSVKGRFTISRDNAKNTVYLQMNSLKPEDTAVYYCAAGRVVYSYSDNYDYWGQGTQVTVSS”: the “polyreactivity (PSR sort gate)” value is on record as “high polyreactivity”.

For the sequence “QVQLVESGGGLVQAGGSLRLSCAASGSIFITYARGWYRQAPGKERELVAAIRDSGDRTYYADSVKGRFTISRDNAKNTVYLQMISLKPEDTAVYYCNARWQEPLKYDYWGQGTQVTVSS”, the “polyreactivity (PSR sort gate)” value is “low polyreactivity”.

“QVQLVESGGGLVQAGGSLRLSSASSGSIFESNALGWYRQAPGKEREFVAAIDQNDGSTNYADSVKGRFTISRDNAKNTVYLQMYSLNPEDTAVYYCAASPGTASYDYWGQGTQVTVSS”: the “polyreactivity (PSR sort gate)” value is reported as “low polyreactivity”.

Turning to “QVQLQESGGGLVQAGGSLRLGCAASGYISGFNEMGWYRQAPGKERELDAAITNGGISNYADSVKGRFTISRDNAKNTVYLQMNSLKPEDTAMYYCAAGDFDQSNHAYWGQDTQVTVSS”, the “polyreactivity (PSR sort gate)” value was “high polyreactivity”.

Take “QVQLVESGGGLVQAGGSLRLSCAASGLIFGVNAMGWYRQAPGKEMELVAAITSRGGSTYYADSVKGRFTISRDNAKNTVYLQMNSLKPEDTAVYYCAAKYAYYEPYSWRPQRTYNYWGQGTQVTVSS”: the “polyreactivity (PSR sort gate)” value is on record as “high polyreactivity”.

As to “QFQLVESGGGLVQAGGSLRLSCAASGSTFLLYAMGWYRQAPGKEREFVASISGDGSSNYADSVKGRFTISRDNAKITVYLQMNSLKPEDTAVYYCAAVLLDPDSTLESGGNFDYWGQGTQVTVSS”, the “polyreactivity (PSR sort gate)” value is on record as “low polyreactivity”.

Turning to “QVQLVESGGGLVQAGGSLRLSCAASGSTLGYYTMGWYRQAPGKERELVAAIDWSGGSTYYADSVKGRFTISRDNAKNTVYLQMNSLKPEDTAVYYCAVDYTYSYVDYWSEYDYWGQGTQVTVSS”, the “polyreactivity (PSR sort gate)” value is recorded as “low polyreactivity”.

For the sequence “QVQLVESGGGLVQAGGSLRLSCAASGRIFRYNAMGWYRQAPGKERELVAAISWSGGSTYADSVKGRFTISRDNAKNTVYLQMNSLKPEDTAVYFCAADSSDLYVWGYDHGGQGTQVTVSS”, the “polyreactivity (PSR sort gate)” value was “low polyreactivity”.

For “QVQLVESGGGLVQAGGSLRLSCAASGSTLYTYAMGWYRQAPGKERELVAAIRLSGGRTYYADSVKGRFTISRDNAQNTVYLQMNSLKPEDTAVYYCAVDWSYSRYDYWGQGTQVTVSS”, the “polyreactivity (PSR sort gate)” value is reported as “high polyreactivity”.

On to “QVPLVESGGGLVQAGGSLRLSCAASGFIFSSNARGWYRQAPGKERELVARITWSDGSTYYADSVKGRFTISRDNAKKTVYLQMNSLKPEDTAVYYCAKGRDATHYEYYLYSMDYWGQGTQVTVSS”, for which the “polyreactivity (PSR sort gate)” value was “low polyreactivity”.

Turning to “QVQLVESGGGLVQAGGSLRLSCAASGFIFGDYAMGWYRQAPGKERELVAAINYSGGSTYYADSVKGRFTISRDNAKNTVYLQMNSLKPEDTAVYYCAALIYGLVGWGQGTQVTVSS”, the “polyreactivity (PSR sort gate)” value was “low polyreactivity”.

Consider “QVQLVESGGGLVQAGGSLRLSCAASGRIFRGYAMGWYRQAPGKERELVAAISQSGSSTYYADSVKGRFTISRDNAKNTVYLQMNSLKPEDTAVYYCAVKYLKHFGYWGQGTQVTVSS”, for which the “polyreactivity (PSR sort gate)” value is reported as “high polyreactivity”.
